Laboratory results: paper PMC7986633 (Angewandte Chemie (International Ed. in English), 2021)

B1: ECSITCTD (C‐terminal fragment of ECSIT, residues 248–431), purified (domain or fragment)
chain: PLPKDSTGAADPPQPHIVGIQSPDQQAALARHNPARPVFVEGPFSLWLRNKCVYYHILRADLLPPEEREVEETPEEWNLYYPMQLDLEYVRSGWDNYEFDINEVEEGPVFAMCMAGAHDQATMAKWIQGLQETNPTLAQIPVVFRLAGSTRELQTSSAGLEEPPLPEDHQEEDDNLQRQQQGQS
B2: ACAD9 (residues 38–621), recombinant, purified (enzyme)
chain: AFAKELFLGKIKKKEVFPFPEVSQDELNEINQFLGPVEKFFTEEVDSRKIDQEGKIPDETLEKLKSLGLFGLQVPEEYGGLGFSNTMYSRLGEIISMDGSITVTLAAHQAIGLKGIILAGTEEQKAKYLPKLASGEHIAAFCLTEPASGSDAASIRSRATLSEDKKHYILNGSKVWITNGGLANIFTVFAKTEVVDSDGSVKDKITAFIVERDFGGVTNGKPEDKLGIRGSNTCEVHFENTKIPVENILGEVGDGFKVAMNILNSGRFSMGSVVAGLLKRLIEMTAEYACTRKQFNKRLSEFGLIQEKFALMAQKAYVMESMTYLTAGMLDQPGFPDCSIEAAMVKVFSSEAAWQCVSEALQILGGLGYTRDYPYERILRDTRILLIFEGTNEILRMYIALTGLQHAGRILTTRIHELKQAKVSTVMDTVGRRLRDSLGRTVDLGLTGNHGVVHPSLADSANKFEENTYCFGRTVETLLLRFGKTIMEEQLVLKRVANILINLYGMTAVLSRASRSIRIGLRNHDHEVLLANTFCVEAYLQNLFSLSQLDKYAPENLDEQIKKVSQQILEKRAYICAHPLDRTC

How the values were obtained:
native MS = target: the molecule itself; test: native MS
SEC-MALS + other: SAXS = target: the molecule itself; test: SEC-MALS + other: SAXS

| Protein | stoichiometry N (native MS) | stoichiometry N (SEC-MALS + other: SAXS) |
| --- | --- | --- |
| B1 | ≥ 4 | 2 |
| B2 | 2 |  |
